How the values were obtained:
His-Pns6 [1] = target: T1, His-Pns6 (Rice dwarf phytoreovirus (RDV), UniProt Q85438 1-509); test: northwestern blot; EMSA: 50 mM Tris-HCl pH 7.5, 50 mM NaCl, 10% glycerol, 20 min on ice; northwestern: 20 mM Tris-HCl pH 7.5, 50 mM NaCl, 0.1% Triton X-100, 1 mM DTT, 1 mM EDTA, 0.02% Ficoll 400 (renaturation and washes at 4 C), UV crosslinking after washing; conditions: protein: recombinant; tags: His (pET28a); label: 32P 5' end when probe; 3' overhang 2 nt (UU) on both strands, 19 bp
T1 sequence: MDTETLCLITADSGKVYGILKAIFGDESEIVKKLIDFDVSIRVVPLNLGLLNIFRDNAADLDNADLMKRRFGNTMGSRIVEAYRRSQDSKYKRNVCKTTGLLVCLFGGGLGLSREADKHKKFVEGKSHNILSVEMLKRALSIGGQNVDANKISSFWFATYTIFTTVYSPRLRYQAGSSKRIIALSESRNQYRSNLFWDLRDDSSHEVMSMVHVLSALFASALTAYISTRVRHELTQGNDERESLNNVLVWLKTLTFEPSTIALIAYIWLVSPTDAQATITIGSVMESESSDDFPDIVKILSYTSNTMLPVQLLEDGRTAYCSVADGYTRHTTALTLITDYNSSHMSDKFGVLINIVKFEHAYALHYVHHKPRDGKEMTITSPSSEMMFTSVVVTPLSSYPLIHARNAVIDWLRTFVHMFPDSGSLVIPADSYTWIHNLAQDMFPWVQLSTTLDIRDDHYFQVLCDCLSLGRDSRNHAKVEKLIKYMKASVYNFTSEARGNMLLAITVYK

His-Pns6 [2] = target: T1, His-Pns6; test: competition EMSA; vs labeled S3-5; equal to other dsRNAs; EMSA: 50 mM Tris-HCl pH 7.5, 50 mM NaCl, 10% glycerol, 20 min on ice; northwestern: 20 mM Tris-HCl pH 7.5, 50 mM NaCl, 0.1% Triton X-100, 1 mM DTT, 1 mM EDTA, 0.02% Ficoll 400 (renaturation and washes at 4 C), UV crosslinking after washing; conditions: protein: recombinant, tags: His (pET28a), blunt
His-Pns6 [3] = target: T1, His-Pns6; test: competition EMSA; vs labeled S3-5a; less than sense strands; EMSA: 50 mM Tris-HCl pH 7.5, 50 mM NaCl, 10% glycerol, 20 min on ice; northwestern: 20 mM Tris-HCl pH 7.5, 50 mM NaCl, 0.1% Triton X-100, 1 mM DTT, 1 mM EDTA, 0.02% Ficoll 400 (renaturation and washes at 4 C), UV crosslinking after washing; conditions: protein: recombinant; tags: His (pET28a); label: 32P 5' end when probe
His-Pns6 [4] = target: T1, His-Pns6; test: competition EMSA; vs labeled S3-5a; highest; EMSA: 50 mM Tris-HCl pH 7.5, 50 mM NaCl, 10% glycerol, 20 min on ice; northwestern: 20 mM Tris-HCl pH 7.5, 50 mM NaCl, 0.1% Triton X-100, 1 mM DTT, 1 mM EDTA, 0.02% Ficoll 400 (renaturation and washes at 4 C), UV crosslinking after washing; conditions: protein: recombinant; tags: His (pET28a); label: 32P 5' end when probe
His-Pns6 [5] = target: T1, His-Pns6; test: competition EMSA; vs labeled S3-5a; higher than antisense strands; EMSA: 50 mM Tris-HCl pH 7.5, 50 mM NaCl, 10% glycerol, 20 min on ice; northwestern: 20 mM Tris-HCl pH 7.5, 50 mM NaCl, 0.1% Triton X-100, 1 mM DTT, 1 mM EDTA, 0.02% Ficoll 400 (renaturation and washes at 4 C), UV crosslinking after washing; conditions: protein: recombinant; tags: His (pET28a); label: 32P 5' end when probe

B1: dsR (dsRNA)
RNA 1: UUCUCCGAACGUGUCACGUUU
RNA 2: ACGUGACACGUUCGGAGAAUU
B1: binds (His-Pns6 [1]).

B2: S3m (dsRNA)
RNA 1: CAAUCAAUAUGCUCGCCCCA
RNA 2: UGGGGCGAGCAUAUUGAUUG
B2: binds (His-Pns6 [2]).

B3: S3-5 (dsRNA)
RNA 1: GGCAAAAUCGAGCGAACAAU
RNA 2: AUUGUUCGCUCGAUUUUGCC
B3: binds (His-Pns6 [2]; label: 32P 5' end when probe).

B4: S3-3 (dsRNA)
RNA 1: UGUUUUGCUUGGUUCCUGAU
RNA 2: AUCAGGAACCAAGCAAAACA
B4: binds (His-Pns6 [2]).

AUUGUUCGCUCGAUUUUGCC (ssRNA) [S3-5a]: binds (His-Pns6 [3]).

GGCAAAAUCGAGCGAACAAU (ssRNA) [S3-5s]: binds (His-Pns6 [4]).

AUCAGGAACCAAGCAAAACA (ssRNA) [S3-3a]: binds (His-Pns6 [3]).

UGUUUUGCUUGGUUCCUGAU (ssRNA) [S3-3s]: binds (His-Pns6 [5]).
